Measured values reported in ChEMBL document CHEMBL3526099, “Metabolism of triethylenetetramine and 1,12-diamino-3,6,9-triazadodecane by the spermidine/spermine-N(1)-acetyltransferase and thialysine acetyltransferase” (Drug Metab Dispos, 2013).

How the values were obtained:
NCCNCCNCCN = assay: not read
NCCCNCCNCCNCCN = assay: Drug metabolism assessed as mouse SSAT1-mediated metabolite formation; assay type: ADME

Chain of Diamine acetyltransferase 1 (Homo sapiens) (chain, as listed by the source): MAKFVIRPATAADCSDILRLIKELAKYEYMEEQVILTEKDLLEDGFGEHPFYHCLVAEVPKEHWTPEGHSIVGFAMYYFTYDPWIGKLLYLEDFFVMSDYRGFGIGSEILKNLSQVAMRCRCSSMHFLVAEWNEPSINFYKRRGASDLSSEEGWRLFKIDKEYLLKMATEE
Chain of Diamine acetyltransferase 1 (Mus musculus) (chain, as listed by the source): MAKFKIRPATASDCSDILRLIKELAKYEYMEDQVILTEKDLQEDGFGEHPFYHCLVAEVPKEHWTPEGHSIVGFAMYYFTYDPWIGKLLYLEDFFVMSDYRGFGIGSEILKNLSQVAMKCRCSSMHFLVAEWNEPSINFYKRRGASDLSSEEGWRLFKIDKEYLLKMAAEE

| Substance | Km (NCCNCCNCCN) [µM] | Vmax (NCCNCCNCCN) [µmol/min/mg] | Km (NCCCNCCNCCNCCN) [µM] | Vmax (NCCCNCCNCCNCCN) [µmol/min/mg] |
| --- | --- | --- | --- | --- |
| Diamine acetyltransferase 1 (Homo sapiens) | 83 | 0.9 | – | – |
| Diamine acetyltransferase 1 (Mus musculus) | – | – | 106 | 1.17 |
